Molecular target: NS3h wt (NS3 helicase domain) (Hepatitis C virus JFH1 (genotype 2a), UniProt Q99IB8 1218-1662)
Test: fluorescence polarization; probe; Kd of 5 nM only assumed for fit; FP competition: 15 nM NS3h, 15 nM Cy5-dT15, 25 mM MOPS pH 7.5, 1.25 mM MgCl2, 0.0025 mg/ml BSA, 0.005% Tween20, 0.025 mM DTT, 0-2000 nM competitor, 20 min, 23 C
Conditions: protein: recombinant; tags: C-terminal His tag; label: 5' Cy5

Sequence of NS3h wt (NS3 helicase domain) (Q99IB8 1218-1662): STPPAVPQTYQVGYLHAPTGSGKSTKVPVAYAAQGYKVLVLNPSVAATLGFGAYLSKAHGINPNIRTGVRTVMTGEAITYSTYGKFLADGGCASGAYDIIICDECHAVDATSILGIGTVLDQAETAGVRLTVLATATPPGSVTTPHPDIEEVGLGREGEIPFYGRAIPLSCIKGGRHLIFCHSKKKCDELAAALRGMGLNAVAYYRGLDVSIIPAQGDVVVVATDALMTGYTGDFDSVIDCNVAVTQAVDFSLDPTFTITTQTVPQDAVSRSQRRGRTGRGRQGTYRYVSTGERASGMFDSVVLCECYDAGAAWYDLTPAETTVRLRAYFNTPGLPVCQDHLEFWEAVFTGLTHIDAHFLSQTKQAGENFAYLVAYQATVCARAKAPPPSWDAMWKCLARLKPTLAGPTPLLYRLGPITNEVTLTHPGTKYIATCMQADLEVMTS

TTTTTTTTTTTTTTT (ssDNA) [Cy5-dT15]: binds.

From article PMC12391449, “Hepatitis C virus NS3 helicase contributes to (−) strand RNA synthesis”
